The results in this text go back to patent publication US9217139B2, “Extracellularly secreted nuclease” (JAPAN AGENCY FOR MARINE-EARTH SCIENCE AND TECHNOLOGY, priority 2010, dated 2015).

What all share (format): biochemical
One series has as its system Salmon sperm DNA. Briefly: standard specific activity measurement method (increase of absorbancy at 260 nm). The conditions noted are these: 37 degrees Celsius; for specific activity: purified enzyme, 30 minutes, 20 mM Tris/HCl pH 8.5, 1 mM MgCl2, 1 mM CaCl2. The protocol: The specific activity of NucS was measured at 37 degrees Celsius in 20 mM of Tris/HCl at pH 8.5 that contains 1 mM of MgCl2 and 1 mM of CaCl2 (a measurement method under the condition described here is also referred to as a standard specific activity measurement method, hereinafter); the specific activity was 3.6×10^6 U/mg-protein, which was a very high level of specific activity. In this case, 1 U represents an amount of enzymes necessary to increase the absorbancy of 260 nm by one for 30 minutes when the enzymes works on the following as substrate: Salmon sperm DNA 1 mg/mL (manufactured by Invitrogen; Cat no. 15632-011). As a reference, as for NucS, when the specific activity of Benzonase (Registered Trademark), which was a commercially available nucleolytic enzyme that had the highest specific activity among those listed in a brochure, was measured under the conditions described in the brochure (37 degrees Celsius) with the use of the same substrate; the specific activity was 9.4×10^5 U/mg-protein. As a result, it became clear that the specific activity of NucS is about 3.8 times higher than that of Benzonase.
The specific activity of NucL was 5.6×10^4 U/mg-protein at 37 degrees Celsius in 20 mM of Tris/HCl at pH 8.5 that contains 1 mM of MgCl2 and 1 mM of CaCl2. The isoelectric point was measured by using Novex (Registered Trademark) IEF pH-3-10 gel (manufactured by Invitrogen); and then pl was 7.0. Then, it was determined that a N-terminal amino acid sequence of the purified enzyme was DSVRIHDIQGTTR. The sequence matched 12 out of 13 amino acids of putative protein (putative secreted hydrolase) coded on a genome of Streptomyces scabiei 87.22, and of putative protein (large secreted protein) coded on a genome of S. avermitilis MA-4680.

Series [1] can be described thus: effects of temperature on enzyme activity. The following applies: 15 minutes, 20 mM Tris/HCl pH 8.5, 1 mM MgCl2, 1 mM CaCl2. On the procedure:
Under each temperature condition, the nucleic-acid degradation activity was measured for 15 minutes in 20 mM of Tris/HCl at pH 8.5 that contained 1 mM of MgCl2 and 1 mM of CaCl2.

Series [2] in a line: thermal stability test (residual activity). The following applies: heat treatment 30 minutes, 20 mM Tris/HCl pH 8.5, 1 mM MgCl2, 1 mM CaCl2; ice bath = 100 percent. The protocol: After heat treatment was conducted for 30 minutes at each temperature in 20 mM of Tris/HCl at pH 8.5 that contained 1 mM of MgCl2 and 1 mM of CaCl2, the residual activity was measured (referring to FIG. 6). An activity of an enzyme stored in an ice bath was regarded as 100 percent.

Series [3] has as its system Deoxyribonucleic acid sodium salt from salmon testes. Put plainly: effects of monovalent salt on enzyme activity. The conditions noted are these: 10 mM Tris/HCl pH 8.5, 1 mM MgCl2, 25 degrees Celsius. The protocol:
Effects of monovalent salt on NucS and NucL were examined. At each concentration level of NaCl, the nucleic-acid degradation activity was measured at 25 degrees Celsius for 15 minutes by using, as substrate, Deoxyribonucleic acid sodium salt from salmon testes 0.4 mg/mL (manufactured by Sigma-Aldrich; Cat no. D1626-1G) in 10 mM of Tris/HCl at pH 8.5 that contained 1 mM of MgCl2 and 0 to 1,000 mM of NaCl. […] Substantially similar results were obtained even in the case of using KCl (referring to FIG. 8).

Series [4] relates to circular DNA (pUC18 plasmid). Briefly: reaction styles in initial stage of degradation of circular DNA. The protocol:
According to the standard specific activity measurement method, reaction styles in an initial stage of degradation reaction for circular DNA (pUC18 plasmid) of NucS and NucL were analyzed (referring to FIGS. 14 and 15). […] The degradation of circular plasmid DNA executed by the single strand-specific nucleolytic enzyme is considered to proceed as the molecular weight degreases due to accumulation of endo-type cleavage of single strands.

In series [5] the test system is linear double-stranded DNA (pUC18 plasmid cut by BamHI, SacI, SmaI). Briefly: degradation pattern of linear double-stranded DNA. The following applies: for degradation of linear double-stranded DNA regardless of the structure of DNA strand ends: 5'-protruding, 3'-protruding and flush ends; for efficiency of degradation of linear double-stranded DNA compared with circular DNA: comparison of FIGS. 12, 16, 17. From the text: With the use of the standard specific activity measurement method, as well as of a substrate obtained by making circular DNA (pUC18 plasmid) linear by using restriction nucleases BamHI (which generates a 5′-protruding end), SacI (which generates a 3′-protruding end), and SmaI (which generates a flush end), a degradation reaction took place with the use of NucS and NucL (referring to FIGS. 16 and 17).
Given the above results, it is presumed that NucL has a reaction style called an endo-exo type.

The test system of series [6] is salmon DNA (double-stranded DNA) and thermally-denatured DNA (single-stranded DNA). Put plainly: reactivity test for single-stranded and double-stranded DNA. The conditions noted are these: 15-minute standard specific activity measurement method. On the procedure: With the use of a 15-minute standard specific activity measurement method, the reactivity of each enzyme was tested for salmon DNA (double-stranded DNA) that was dissolved at low temperatures, as well as for the same DNA (single-stranded DNA) that had been subjected to thermal denaturation at 95 degrees Celsius for 10 minutes. […] That is, it can be said that NucL is an enzyme that efficiently works on single-stranded DNA.

The nature of series [7]: phosphodiesterase activity test. The following applies: 100 mM Tris/HCl pH 8.5, 1 mM MgCl2, 1 mM CaCl2, 1 percent glycerol, 25 degrees Celsius. On the procedure: (§1) Bis(p-nitrophenyl)phosphate and p-nitrophenylphosphate were used as substrate. The method of Tomoyeda et al. (referring to Archives of biochemistry and biophysics. 131(1), 191-202, 1969; the contents of the document are incorporated herein by reference) was used. In 100 mM of Tris/HCl at pH 8.5 that contained 1 mM of MgCl2, 1 mM of CaCl2, and 1 percent of glycerol, with the use of a reaction solution that contained 0.2 percent of the above substrate, the phosphodiesterase activity and phosphatase activity of both enzymes were measured at 25 degrees Celsius.

Series [8] is described as follows: phosphatase activity test. The conditions noted are these: 100 mM Tris/HCl pH 8.5, 1 mM MgCl2, 1 mM CaCl2, 1 percent glycerol, 25 degrees Celsius. On the procedure:
as §1

B1: NucS: low-molecular-weight nucleolytic enzyme, about 17 to 21 kDa, secreted by Streptomyces sp. MBE174; SEQ ID NO. 3 (protein)
chain: MPKLYARRRFAVLAALTGLIASAGLFHGPAASAALPTPVSAATARGYLASLKVAPENRTGYKRDLFPHWITQSGTCNTRETVLKRDGTNVVTDAACAATSGSWYSPFDGATWTAASDVDIDHLVPLAEAWDSGASAWTTAQRQAFANDLTRPQLLAVTDTVNQSKGDKDPAEWMPPRAAYHCTYVRAWVQVKYYYGLSVDTAEKTALTNRLAGC
modifications: Streptmyces sp. MBE174
As to B1, in the series on Salmon sperm DNA (same substrate), the “specific activity of NucS relative to Benzonase” value is “about 3.8 times”. Further, the specific activity in the series with Salmon sperm DNA is on record as 3.6×10^6 U/mg-protein. In addition, the optimum reaction temperature result in series [1] is “around 55 degrees Celsius”. Further, in series [2], the “temperature until which the enzyme remained stable” value is not above 45 degrees Celsius. Moreover, the “activity in dependence on NaCl concentration” value in [3] (0 to 1,000 mM NaCl) is “high when the concentration of NaCl was low”. Further, the “reaction style in initial stage of degradation of circular DNA” value in series [4] was “degradation activity of an endo-type style”. In series [5], the “degradation of linear double-stranded DNA regardless of the structure of DNA strand ends” value was “can degrade” and the “efficiency of degradation of linear double-stranded DNA compared with circular DNA” value is “at the same level of efficiency”. Moreover, in series [6], the “efficiency of degrading thermally-denatured DNA compared with native DNA” value was “at the same level of efficiency”. The phosphodiesterase activity entry in [7] was “does not have”. Further, the phosphatase activity result in [8] is “does not have”.

B2: NucL: nucleolytic enzyme of about 66.5 kDa secreted by Streptomyces sp. MBE174; SEQ ID NO. 4 (protein)
chain: MASQSVTRLAALTVAATCSAASVVVLGPPAHADSVRIHDIQGTTRISPYAGRQVADVPGVVTGVRDHGSSRGFWFQDPRPDDDPATSEGVFVFTGSAPGVEAGDAVTVSGTVSEFVPGGTASGNQSLTEITRPTVTVVSRGNPVPDPVVVSARSVPHAYAPAGDAAANGSVNALPLRPDRYALDYYESLEGMNVQVADARVVGATDPYTELWVTVKPGENASPRGGTVYGSRDAQNTGRLQIQTLGVPAGFPAADVGDTLAGATTGPLDYNQFGGYTLVARSLGTLTAGGLARETTREQHRDELSVATYNVENLDPSDGTFAAHAEAIVRNLRSPDIVSLEEIQDDNGATDDGTVTAGVTVGKLIDAVVAAGGPRYDWRSVDPVDKADGGQPGGNIRQVFLFDPRRVSFADRPGGDAVTATGVVKVRGKAALTHSPGRVDPANPAWLNSRKPLAGEFSFRGRTVFVIANHFASKGGDQGLTSQYQPPARSSETQRHLQATAVNTFVKQILAVQKNADVIALGDINDFEFSGTTERLEAGGALWSAVRSLPPGERYSYVYQGNSQVLDQILVSPSIRRGHLSYDSVHINAEFHDQISDHDPQVLRYRP
modifications: Streptmyces sp. MBE174
In the case of B2, in the series with Salmon sperm DNA, the specific activity was 5.6×10^4 U/mg-protein. Besides, the optimum reaction temperature entry in [1] was “around 45 degrees Celsius”. Besides, the “temperature until which the enzyme remained stable” value in series [2] was not above 35 degrees Celsius. For the same molecule, the “NaCl concentration up to which the enzyme remained active” value in [3] is “up to 1,000 mM”. For the same molecule, the “reaction style in initial stage of degradation of circular DNA” value in [4] is reported as “reaction pattern similar to a single strand-specific, endo-type nucleolytic enzyme”. Besides, in series [5], the “reaction style presumed from linear DNA degradation” value is given as “endo-exo type”, the “degradation of linear double-stranded DNA regardless of the structure of DNA strand ends” value is recorded as “can degrade” and the “efficiency of degradation of linear double-stranded DNA compared with circular DNA” value is on record as “more efficiently”. Further, the “efficiency of degrading thermally-denatured DNA compared with native DNA” value in series [6] is reported as “about five times higher”. For the same molecule, in series [7], the phosphodiesterase activity entry was “has”. Further, the phosphatase activity entry in [8] was “has”.
